{
  "source": "patent US20230121197A1",
  "about": "“ANTIBODIES SPECIFICALLY BINDING THE CARBOXYMETHYLATED CATALYTIC SUBUNIT OF PROTEIN PHOSPHATASE 2A” (Medizinische Universität Wien, priority 2020, published 2023)",
  "molecules": {"B1": {"name": "7C10-C5: α-carboxymethylation specific mouse monoclonal IgG1 antibody from single clone hybridoma 7C10-C5 (DSM ACC3350) (antibody)", "heavy": "MYRMQLLSCIALSLALVTNSDVQLQESGPGLVKPSQSLSLTCSVTGYSITSGYYWNWIRQFPGNKLEWMGYISYDGSNNYNPSLKNRISITRDTSKNQFFLKLNSVTTEDTATYYCAGRFAYWGQGTLVTVSAAKTTAPSVYPLAPVCGDTTGSSVTLGCLVKGYFPEPVTLTWNSGSLSSGVHTFPAVLQSDLYTLSSSVTVTSSTWPSQSITCNVAHPASSTKVDKKIEPRGPTIKPCPPCKCPAPNLLGGPSVFIFPPKIKDVLMISLSPIVTCVVVDVSEDDPDVQISWFVNNVEVHTAQTQTHREDYNSTLRVVSALPIQHQDWMSGKEFKCKVNNKDLPAPIERTISKPKGSVRAPQVYVLPPPEEEMTKKQVTLTCMVTDFMPEDIYVEWTNNGKTELNYKNTEPVLDSDGSYFMYSKLRVEKKNWVERNSYSCSVVHEGLHNHHTTKSFSRTPGK", "light": "MDMRVPAQLLGLLLLWLSGARCDVLMTQTPLSLPVSLGDQASISCRSSQSIVHSNGNTYLEWYLQKPGQSPKLLIYKVSNRFSGVPDRFSGSGSGTDFTLKINRVEAEDLGVYYCFQGSHVPWTFGGGTKLEIKADAAPTVSIFPPSSEQLTSGGASVVCFLNNFYPKDINVKWKIDGSERQNGVLNSWTDQDSKDSTYSMSSTLTLTKDEYERHNSYTCEATHKTSTSPIVKSFNRNEC", "modifications": "Amino acid sequence of the recombinant 7C10-C5 heavy chain; Amino acid sequence of the recombinant 7C10-C5 light chain"}, "B2": {"name": "7C10-C5 monoclonal antibody (antibody, V domains shown)", "VH": "DVQLQESGPGLVKPSQSLSLTCSVTGYSITSGYYWNWIRQFPGNKLEWMGYISYDGSNNYNPSLKNRISITRDTSKNQFFLKLNSVTTEDTATYYCAGRFAYWGQGTLVTVSA", "VL": "DVLMTQTPLSLPVSLGDQASISCRSSQSIVHSNGNTYLEWYLQKPGQSPKLLIYKVSNRFSGVPDRFSGSGSGTDFTLKINRVEAEDLGVYYCFQGSHVPWTFGGGTKLEIK", "notes": "Used as hybridoma culture supernatant (ELISA, Western blot, IHC) or at 50 µg/mL (SPR); also called 7C10 X63; clone 7C10-C5"}},
  "key": {"[1]": {"system": "PP6", "experiment": "Summary of cross-reactivities of C-terminal PP2Ac antibodies (Table 4), PP6", "conditions": "antibodies screened for binding methylated PP2Ac", "description": "Examples of antibodies with a preference for non-methylated PP2Ac are mouse monoclonal antibody 4B7 (Yu (2001), Mol Biol Cell 12, 185-199), mouse monoclonal antibody 1D7 generated by the Ogris lab but also the rabbit monoclonal E155 antibody from Abeam and the mouse monoclonal F-8 from SCBT that were thought to be specific for pTyr^307."}, "[2]": {"target": "T1, C(βA)TPDYFL-CH3 peptide (carboxymethylated PP2Ac C-terminus) (Homo sapiens, UniProt P67775)", "T1 construct": "purchased PiChem GmbH (Graz, Austria)", "experiment": "ELISA screening of hybridoma supernatants with C(βA)TPDYFL peptides", "format": "binding", "conditions": "undiluted supernatants, peptides at 3 μg/ml", "experimental": "In parallel to the immunoblotting screening, hybridoma supernatants were tested for the presence of TPDYFL-CH3 (SEQ ID NO:1) specific IgG antibodies by ELISA. Specifically, flat-bottom Nunc-Immuno Medisorp 96-well ELISA plates (Thermo; 467320) were coated over night at 4° C. with 50 μl of either a peptide of the sequence C(βA)TPDYFL (SEQ ID NO:48) at a concentration of 3 μg/ml in 10 mM sodium phosphate buffer pH 7.0 or with a peptide of the sequence C(βA)TPDYFL-CH3 (SEQ ID NO:48) at a concentration of 3 μg/ml in 10 mM sodium phosphate buffer pH 7.0. The wells were washed once with PBS, blocked with 180 μl of 2% bovine serum albumin (Sigma, A9647) in PBS for 1 hour at RT and washed again once with PBS. […] Bound antibodies were detected colorimetrically by addition of 50 μl of 33 μg/ml […] (TMB) (Sigma, T2885) in 0.1 M sodium acetate pH 6.0 and 0.01% H2O2 (Sigma, H1009). The colorimetric reaction was stopped after 28 min by addition of 50 μl 0.5 M H2SO4, and absorbance was measured at 450 nm with a Perkin Elmer Wallac Victor 2 1420 Multilabel Counter."}, "[3]": {"target": "T2, PP2Ac C-terminal peptide meL309, ac-HVTRRTPDYFL-CH3 (α-carboxymethylated) (human, SMILES …)", "T2 construct": "also called Y307-meL309; mePP2Ac", "T2 peptide": "Ac-HVTRRTPDYFL-OMe", "experiment": "SPR, from KD 11 nM against >5000 nM", "description": "(A) Saturation curve of the titration of the α-carboxymethylated PP2Ac C-terminal peptide (SEQ ID NO:18) on 7C10-C5 or 2A10 immobilized on a Series S Sensor Chip CM5 (GE Healthcare, 10296958). […] (B) Saturation curve of the titration of the α-carboxymethylated PP4c C-terminal peptide (SEQ ID NO:20) on 7C10-C5 or 2A10 immobilized on a Series S Sensor Chip CM5 (GE Healthcare, 10296958). […] The KD values were obtained using the fitting tool of the BiacoreT200 Evaluation Software (version 3.1).\nThe differential affinity of anti-carboxymethylated PP2Ac antibodies, 7C10-C5 and 2A10, to carboxymethylated PP2A catalytic subunit versus noncarboxymethylated PP2A catalytic subunit was determined by surface plasmon resonance (SPR) on a Biacore T200 (GE Healthcare) at the Core Facility Biomolecular & Cellular Analysis (University of Natural Resources and Life Sciences Vienna BOKU). The affinity of 7C10-C5 for carboxymethylated and noncarboxymethylated catalytic subunit of PP4 (PP4c), a PP2A-related phosphatase, was also determined."}},
  "data": [
    {"molecule": "B1", "values": [
      {"measurement": "PP6 meLeu^305", "setting": "[1]", "value": "— (— <15%)"}
    ]},
    {"molecule": "B2", "values": [
      {"measurement": "detection of carboxymethylated versus non-carboxymethylated peptide", "setting": "[2]", "value": "detected the carboxymethylated peptide"},
      {"measurement": "fold stronger binding than to non-carboxymethylated PP2Ac", "setting": "[3]", "value": "≥ 400", "unit": "fold"}
    ]}
  ]
}
